Reference: doi:10.1101/2023.02.09.527830
pKd: −log10 of the molar value. Values joined by “and” are separate entries in the source; they are usually repeats but may differ in a detail not shown here. Equal values may be shown once.

Key:
[1] = target: Lassa virus nucleoprotein (NP), AV strain (Lassa virus (AV strain)); test: SEC
[2] = target: Lassa virus nucleoprotein (NP), AV strain (Lassa virus (AV strain)); test: native MS
[3] = target: Lassa virus nucleoprotein (NP), AV strain (Lassa virus (AV strain)); test: native MS; remark: listed apart in the source
[4] = target: Lassa virus nucleoprotein (NP), AV strain (Lassa virus (AV strain)); test: negative-stain electron microscopy
[5] = target: Lassa virus Z protein, AV strain (Lassa virus (AV strain)); test: native MS

Substance | stoichiometry N [1] | stoichiometry N [2] | stoichiometry N [3] | stoichiometry N [4] | stoichiometry N [5] | pKd [2]
Lassa virus nucleoprotein (NP), AV strain (natural protein) | 3 | 2 and 3 | 4 and 5 and 6 | 3 | – | –
Lassa virus Z protein, AV strain (natural protein) | – | < 3 | – | – | < 6 | 4.52
